Test results: IntAct's records for PubMed 20802513

B1: Focal adhesion kinase 1 (Gallus gallus (Chicken)), Q00944 (parent)
chain: MAAAYLDPNLNHTPSSSAKTHLGTGMERSPGAMERVLKVFHYFENSSEPTTWASIIRHGDATDVRGIIQKIVDCHKVKNVACYGLRLSHLQSEEVHWLHLDMGVSNVREKFELAHPPEEWKYELRIRYLPKGFLNQFTEDKPTLNFFYQQVKNDYMLEIADQVDQEIALKLGCLEIRRSYGEMRGNALEKKSNYEVLEKDVGLRRFFPKSLLDSVKAKTLRKLIQQTFRQFANLNREESILKFFEILSPVYRFDKECFKCALGSSWIISVELAIGPEEGISYLTDKGANPTHLADFNQVQTIQYSNSEDKDRKGMLQLKIAGAPEPLTVTAPSLTIAENMADLIDGYCRLVNGATQSFIIRPQKEGERALPSIPKLANNEKQGVRSHTVSVSETDDYAEIIDEEDTYTMPSTRDYEIQRERIELGRCIGEGQFGDVHQGIYMSPENPAMAVAIKTCKNCTSDSVREKFLQEALTMRQFDHPHIVKLIGVITENPVWIIMELCTLGELRSFLQVRKFSLDLASLILYAYQLSTALAYLESKRFVHRDIAARNVLVSATDCVKLGDFGLSRYMEDSTYYKASKGKLPIKWMAPESINFRRFTSASDVWMFGVCMWEILMHGVKPFQGVKNNDVIGRIENGERLPMPPNCPPTLYSLMTKCWAYDPSRRPRFTELKAQLSTILEEEKLQQEERMRMESRRQVTVSWDSGGSDEAPPKPSRPGYPSPRSSEGFYPSPQHMVQPNHYQVSGYSGSHGIPAMAGSIYPGQASLLDQTDSWNHRPQEVSAWQPNMEDSGTLDVRGMGQVLPTHLMEERLIRQQQEMEEDQRWLEKEERFLVMKPDVRLSRGSIEREDGGLQGPAGNQHIYQPVGKPDHAAPPKKPPRPGAPHLGSLASLNSPVDSYNEGVKIKPQEISPPPTANLDRSNDKVYENVTGLVKAVIEMSSKIQPAPPEEYVPMVKEVGLALRTLLATVDESLPVLPASTHREIEMAQKLLNSDLAELINKMKLAQQYVMTSLQQEYKKQMLTAAHALAVDAKNLLDVIDQARLKMISQSRPH

Variants of: B1
Conditions: with pgfrb_human PDGFRB

| effect of a mutation on the interaction | Variant |
| --- | --- |
| disrupting interaction | Y5F;Y194F |
